In patent publication US20230080534A1, “SEMG2 ANTIBODY AND USE THEREOF” (SHANGHAI BIOTROY BIOTECHNIQUE CO., LTD., priority 2020, published 2023) one finds OD450 absorbance, A450 absorbance and EC50 data, which are given here for three substances.

Test [1] concerns the target SEMG2(497-509) polypeptide … (human). The experiment in a line: ELISA, immobilized peptide …. A general note: An ELISA detects its analyte on a solid surface through an enzyme-linked reagent.
In test [2] the target is human SEMG2 full-length protein (human) (UniProt Q02383). The experiment in a line: ELISA, immobilized antigen SEMG2 (1-582).
Chain of human SEMG2 full-length protein (human) (Q02383 24-582 limits assumed): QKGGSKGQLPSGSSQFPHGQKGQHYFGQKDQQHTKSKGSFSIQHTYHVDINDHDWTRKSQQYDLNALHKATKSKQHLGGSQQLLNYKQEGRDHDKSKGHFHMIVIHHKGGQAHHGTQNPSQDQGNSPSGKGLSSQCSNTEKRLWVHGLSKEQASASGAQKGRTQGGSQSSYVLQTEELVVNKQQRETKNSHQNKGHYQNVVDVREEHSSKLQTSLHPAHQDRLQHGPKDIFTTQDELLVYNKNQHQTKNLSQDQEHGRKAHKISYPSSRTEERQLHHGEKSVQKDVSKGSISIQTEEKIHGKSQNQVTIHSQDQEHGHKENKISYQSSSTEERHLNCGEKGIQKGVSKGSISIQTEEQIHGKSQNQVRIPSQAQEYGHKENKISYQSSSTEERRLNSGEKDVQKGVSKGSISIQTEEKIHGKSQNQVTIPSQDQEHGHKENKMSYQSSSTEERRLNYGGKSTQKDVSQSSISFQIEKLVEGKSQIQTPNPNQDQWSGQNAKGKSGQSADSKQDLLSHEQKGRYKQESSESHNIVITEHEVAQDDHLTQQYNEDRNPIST
Test [3] has as its target SEMG2(442-453) fragment (human). The experiment in a line: ELISA, immobilized antigen SEMG2 (442-453).
The target of test [4] is SEMG2(354-403) fragment (human). Put plainly: ELISA, immobilized antigen SEMG2 (354-403).
Chain of SEMG2(354-403) fragment (human) (peptide, as listed by the source): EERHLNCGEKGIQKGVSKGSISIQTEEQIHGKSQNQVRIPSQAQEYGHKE
The target in test [5] is SEMG2(497-509) polypeptide … (human). Put plainly: ELISA, immobilized antigen SEMG2 (497-509).
Test [6] deals with SEMG2(563-574) fragment (human). The experiment in a line: ELISA, immobilized antigen SEMG2 (563-574).
Test [7] concerns the target human SEMG2 full-length protein (human) (UniProt Q02383). The experiment in a line: ELISA, plate coated with SEMG2 protein; fit value printed for the flat control curve (see non_binding); the EC50 table prints no unit, the axis is log (antibody concentration, nM).

In turn, “HPA042767 (rabbit polyclonal antibody against SEMG2(354-403), Sigma Aldrich)” registered an OD450 absorbance in test [1] of 0.005. Besides, the A450 absorbance stood at 1.16 in test [2]; 0.007 in test [3]; 1.14 in test [4]; 0.002 in test [5]; 0.011 in test [6].
In test [1], “HPA042835 (rabbit polyclonal antibody against SEMG2(563-574), Sigma Aldrich)” gave an OD450 absorbance of 0.005. The A450 absorbance in test [2] came out at 1.17; in test [3], 0.002; in test [4] it was 0.009; in test [5], 0.009; in test [6], 1.16.
The EC50 is the concentration that produces a half-maximal response. Read a low EC50 as an effect from little substance. Turning to mIgG1 (antibody), the EC50 in test [7] was 0.0885 nM.
